Test results reported in publication PMC11398526.

What was measured:
[1] = target: progesterone receptor isoform A (PR-A), full-length, Strep II tagged (human) (UniProt P06401); experiment: SEC-MALS
[2] = target: steroid receptor coactivator 3 (SRC3), full-length, Strep II tagged (human) (UniProt Q9Y6Q9); experiment: SEC-MALS
steroid receptor coactivator 3 (SRC3), full-length, Strep II tagged (human), sequence (Q9Y6Q9 whole entry): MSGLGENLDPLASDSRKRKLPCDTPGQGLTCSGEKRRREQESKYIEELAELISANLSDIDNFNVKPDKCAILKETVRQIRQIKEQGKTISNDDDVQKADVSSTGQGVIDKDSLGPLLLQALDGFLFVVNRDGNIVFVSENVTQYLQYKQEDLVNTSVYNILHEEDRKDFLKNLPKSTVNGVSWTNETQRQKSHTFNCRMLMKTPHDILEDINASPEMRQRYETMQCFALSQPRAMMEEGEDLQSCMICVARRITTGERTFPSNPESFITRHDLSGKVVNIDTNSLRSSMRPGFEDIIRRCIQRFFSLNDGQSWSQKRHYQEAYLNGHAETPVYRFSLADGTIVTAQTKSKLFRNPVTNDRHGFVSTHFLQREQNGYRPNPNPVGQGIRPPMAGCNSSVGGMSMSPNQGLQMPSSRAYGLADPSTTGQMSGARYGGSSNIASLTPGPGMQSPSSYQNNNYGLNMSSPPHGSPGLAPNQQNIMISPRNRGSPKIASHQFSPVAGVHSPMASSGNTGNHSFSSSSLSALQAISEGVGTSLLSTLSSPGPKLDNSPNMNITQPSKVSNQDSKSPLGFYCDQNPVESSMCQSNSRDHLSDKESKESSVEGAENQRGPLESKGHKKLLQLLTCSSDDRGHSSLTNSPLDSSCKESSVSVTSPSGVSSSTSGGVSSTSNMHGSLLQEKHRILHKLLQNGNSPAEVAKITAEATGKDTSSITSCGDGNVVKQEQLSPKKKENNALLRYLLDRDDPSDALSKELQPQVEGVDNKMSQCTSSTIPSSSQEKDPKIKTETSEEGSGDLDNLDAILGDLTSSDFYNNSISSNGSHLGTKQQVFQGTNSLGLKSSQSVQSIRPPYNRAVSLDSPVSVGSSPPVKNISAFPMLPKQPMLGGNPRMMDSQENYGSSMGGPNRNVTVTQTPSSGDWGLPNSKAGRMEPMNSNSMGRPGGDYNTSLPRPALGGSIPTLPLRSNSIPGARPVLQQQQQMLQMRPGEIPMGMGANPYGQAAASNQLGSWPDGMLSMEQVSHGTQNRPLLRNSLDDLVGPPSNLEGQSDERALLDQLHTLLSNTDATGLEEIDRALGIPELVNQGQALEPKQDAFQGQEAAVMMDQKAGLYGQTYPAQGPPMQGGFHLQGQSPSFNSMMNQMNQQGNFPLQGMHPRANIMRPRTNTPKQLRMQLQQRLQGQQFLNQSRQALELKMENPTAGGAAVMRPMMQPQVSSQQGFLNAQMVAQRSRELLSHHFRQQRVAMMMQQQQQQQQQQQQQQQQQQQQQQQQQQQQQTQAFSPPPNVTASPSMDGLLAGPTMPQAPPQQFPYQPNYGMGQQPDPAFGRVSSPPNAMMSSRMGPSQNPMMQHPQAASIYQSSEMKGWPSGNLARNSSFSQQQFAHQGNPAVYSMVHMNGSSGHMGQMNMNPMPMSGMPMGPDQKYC

progesterone receptor isoform A (PR-A), full-length, Strep II tagged (human), sequence (P06401 165-933): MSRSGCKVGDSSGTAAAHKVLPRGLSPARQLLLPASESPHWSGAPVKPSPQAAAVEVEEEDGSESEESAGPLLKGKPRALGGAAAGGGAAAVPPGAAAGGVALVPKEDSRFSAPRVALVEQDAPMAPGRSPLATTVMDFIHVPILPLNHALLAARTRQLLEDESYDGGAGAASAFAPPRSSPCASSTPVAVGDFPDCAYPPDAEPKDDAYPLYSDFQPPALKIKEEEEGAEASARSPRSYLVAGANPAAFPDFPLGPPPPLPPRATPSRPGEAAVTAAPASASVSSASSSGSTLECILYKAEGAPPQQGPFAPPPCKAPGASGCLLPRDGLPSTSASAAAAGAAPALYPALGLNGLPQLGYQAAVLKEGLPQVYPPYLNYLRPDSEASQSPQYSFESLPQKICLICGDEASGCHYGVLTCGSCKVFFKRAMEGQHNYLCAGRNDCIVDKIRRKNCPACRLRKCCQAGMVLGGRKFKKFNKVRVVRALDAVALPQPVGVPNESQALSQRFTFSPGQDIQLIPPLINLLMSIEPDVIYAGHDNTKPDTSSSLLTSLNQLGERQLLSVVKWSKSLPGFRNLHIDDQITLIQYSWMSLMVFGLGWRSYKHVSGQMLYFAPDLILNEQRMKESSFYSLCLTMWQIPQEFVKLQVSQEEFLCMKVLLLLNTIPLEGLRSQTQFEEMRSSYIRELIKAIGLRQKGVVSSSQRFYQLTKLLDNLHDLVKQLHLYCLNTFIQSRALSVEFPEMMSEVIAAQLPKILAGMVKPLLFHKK

histone acetyltransferase p300, full-length, Strep II tagged, Q09472 1-2414
stoichiometry N (p300 per PR-A) [1]: 0.5
stoichiometry N (p300 per SRC3) [2]: 1
